In article PMC6447540:

Target: SAV1 (UniProt Q9H4B6)
Experiment: biotin-peptide pull-down from cell lysate
Conditions: reference: unphosphorylated Akt1 peptide; sites Y26

## Akt1 PH domain peptide (from UniProt P31749) pY26 Akt1 peptide
  binding against the reference: weaker
